Experimental data taken from patent US20070197431A1 (published 2007).

B1: Nrdp1 tagged at its amino terminus with FLAG epitope (baculovirus, Sf9 insect cells) (other)
chain: DYKDDDDKMGYDVTRFQGDVDEDLICPICSGVLEEPVQAPHCEHAFCNACITQWFSQQQTCPVDRSVVTVAHLRPVPRIMRNMLSKLQIACDNAVFGCSAVVRLDNLMSHLSDCEHNPKRPVTCEQGCGLEMPKDELPNHNCIKHLRSVVQQQQTRIAELEKTSAEHKHQLAEQKRDIQLLKAYMRAIRSVNPNLQNLEETIEYNEILEWVNSLQPARVTRWGGMISTPDAVLQAVIKRSLVESGCPASIVNELIENAHERSWPQGLATLETRQMNRRYYENYVAKRIPGKQAVVVMACENQHMGDDMVQEPGLVMIFAHGVEEI
notes: Construct used for the Sf9 co-immunoprecipitations; also called FLAG-Nrdp1; neuregulin receptor degradation protein-1
B2: GST fusion protein of clone 32 encompassing Nrdp1 residues I135 to I317 (other)
chain: IKHLRSVVQQQQTRIAELEKTSAEHKHQLAEQKRDIQLLKAYMRAIRSVNPNLQNLEETIEYNEILEWVNSLQPARVTRWGGMISTPDAVLQAVIKRSLVESGCPASIVNELIENAHERSWPQGLATLETRQMNRRYYENYVAKRIPGKQAVVVMACENQHMGDDMVQEPGLVMIFAHGVEEI
notes: Expressed in bacteria and immobilized on beads (3 ug) for the pull-downs; also called GST-32; GST fusion of clone 32; not shown: glutathione S-transferase encoded by the pGEX vector

Legend:
human ErbB2 [1] = molecular target: T1, human ErbB2 (human, UniProt P04626 23-1255); experiment: co-immunoprecipitation from co-infected Sf9 cells, anti-FLAG blot
Excerpt: (§1) Baculovirus encoding Nrdp1 tagged at its amino terminus with FLAG epitope was created as described previously (Guy, P. M., et al., Proc. Natl. Acad. Sci USA., 91:8132-36 ((1994)). Baculoviruses encoding human EGF receptor, human ErbB2, bovine ErbB3 or human ErbB4 have been described previously (Carraway, K. L., III, et al., Nature, 387:512-16 (1997)). For co-immunoprecipitation experiments Sf9 cells were infected with receptor viruses and co-infected either wild type or Nrdp1 baculovirus. 48 hours after infection cleared NP-40 lysates were immunoprecipitated with receptor antibodies and blotted with antibodies directed to receptors or FLAG epitope as described above.

human EGF receptor [2] = molecular target: T2, human EGF receptor (human, UniProt P00533 25-1210); experiment: as above
Excerpt: as §1

human ErbB2 [3] = molecular target: T1, human ErbB2; experiment: GST pull-down from Sf9 lysates, receptor blot
Description: (§2) For pull-down experiments receptors were expressed in Sf9 insect cells, cleared lysates were incubated for 1.5 hours with 3 μg immobilized GST or GST-32, and beads were washed as previously described (Carraway, K. L., III, et al., Nature, 387:512-16 (1997)). MDA-MB-453 cells were treated for 5 minutes without or with 10 nM NRG1β, lysed as previously described (Sweeney, C., et al., J. Biol. Chem., 275:19803-07 (2000)), and cleared lysates were incubated with GST and GST-32 as above. Precipitated proteins were resolved by 8% SDS-PAGE, transferred to nitrocellulose and visualized by blotting with anti-phosphotyrosine (RC20, Transduction Laboratories) or anti-receptor antibodies.
(§3) To confirm the specificity of the interaction we employed a GST fusion of clone 32 in receptor pull-down experiments. A GST fusion of clone 32 was used instead of full-length Nrdp1 because we observed that GST-Nrdp1 is insoluble in bacteria. We have expressed each of the ErbB family members in Sf9 cells (Carraway, K. L., III, et al., Nature, 387:512-16 (1997)), incubated cleared lysates with immobilized GST or GST-32, and analyzed associated receptors by blotting precipitates with receptor-specific antibodies. We again observed that clone 32 is capable of physically interacting with ErbB3 and ErbB4, but not EGF receptor or ErbB2.

human EGF receptor [4] = molecular target: T2, human EGF receptor; experiment: GST pull-down from Sf9 lysates, receptor blot
Description: as §2, §3

Binder | binding result (human ErbB2 [1]) | binding result (human EGF receptor [2]) | binding result (human ErbB2 [3]) | binding result (human EGF receptor [4])
B1 | no binding | no binding | – | –
B2 | – | – | no binding (tested: 3 ug immobilized GST-32) | no binding (tested: 3 ug immobilized GST-32)
